Results on 2 molecules are retold here after publication doi:10.1101/2021.08.19.456998, “Structures of the Human SPAK and OSR1 Conserved C-Terminal (CCT) Domains” (bioRxiv, 2021).

Where no end group is shown, it is not given here. The star is where a group is joined. Biotin = O=C1N[C@H]2[C@H](CS[C@H]2CCCCC(=O)*)N1

Common to all, as to conditions: both partners purified
Test [1] addresses T1, Biotin-C6-SEEGKPQLVGRFQVTSSK (N-terminally biotinylated 18-mer RFQV peptide derived from WNK4) (human).
T1 construct: With No Lysine kinase 4 (WNK4), 18-mer with the RFQV motif; also called biotinylated 18-mer peptide; biotin 18-mer peptide; source: synthetic peptide, bought: GL Biochem, Shanghai Ltd
T1 peptide: {Biotin-C6}-SEEGKPQLVGRFQVTSSK
Description: grating-coupled interferometry (Creoptix WAVE); traditional multicycle kinetics; biotin-C6-18-mer peptide captured on streptavidin chip, cleaved OSR1 as analyte, 25 µM in 1:3 dilutions (six points); 25°C, HBS EP.

Test [2] has as its target T1, Biotin-C6-SEEGKPQLVGRFQVTSSK …. The test is described as follows: grating-coupled interferometry (Creoptix WAVE); waveRAPID; biotin-C6-18-mer peptide captured on streptavidin chip (about 400 pg/mm^2), cleaved SPAK or OSR1 as analyte at 2 µM; 25°C, HBS EP; heterogeneous ligand model for SPAK.
For test [3], the target named is T2, biotin-SPAK (uncleaved human SPAK CCT domain, residues 441-545, biotinylated on the AviTag) (human, biotin on the lysine of the AviTag (…)).
T2 construct: STE20/SPS1-related proline/alanine-rich kinase (SPAK), human, conserved C-terminal (CCT) domain, residues 441-545; the TEV site was not cut in this form; also called hSPAK-CCT; source: E. coli BL21-CodonPlus (DE3)-RIL, purified (HisTrap, SEC), biotinylated with BirA; not shown: His6, N-terminal, kept; AviTag, N-terminal, kept
Description: grating-coupled interferometry (Creoptix WAVE); traditional multicycle kinetics; biotin-SPAK or biotin-OSR immobilised on streptavidin chip, 18-mer peptide as analyte, 50 µM in 3-fold dilutions (six points); 25°C, HBS EP; one-to-one fit.

Test [4] addresses T2, biotin-SPAK (uncleaved human SPAK CCT …). The test is described as follows: grating-coupled interferometry (Creoptix WAVE); waveRAPID; biotin-SPAK or biotin-OSR immobilised on streptavidin chip (about 1000 pg/mm^2), 18-mer peptide as analyte at 5 µM; 25°C, HBS EP (10 mM HEPES pH 7.4, 150 mM NaCl, 3 mM EDTA, 0.005% Tween20); 1:1 kinetic model, global fit.
The target in test [5] is T3, biotin-OSR (uncleaved human OSR1 CCT domain, residues 423-527, biotinylated on the AviTag) (human, biotin on the lysine of the AviTag (…)).
T3 construct: Oxidative Stress Responsive 1 (OSR1) kinase, human, conserved C-terminal (CCT) domain, residues 423-527; the TEV site was not cut in this form; also called hOSR1-CCT; hOSR-CCT; source: E. coli BL21-CodonPlus (DE3)-RIL, purified (HisTrap, SEC), biotinylated with BirA; not shown: His6, N-terminal, kept; AviTag, N-terminal, kept
Described as above.

One may read the Kd as the concentration at which binding is half-saturated.

T3 sequence (chain, as listed by the source): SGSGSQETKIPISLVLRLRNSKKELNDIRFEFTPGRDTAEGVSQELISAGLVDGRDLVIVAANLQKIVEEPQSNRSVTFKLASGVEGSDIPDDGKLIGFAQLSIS

B1: cleaved OSR1 (human OSR1 CCT domain, residues 423-527, tags removed with TEV protease) (domain or fragment)
chain: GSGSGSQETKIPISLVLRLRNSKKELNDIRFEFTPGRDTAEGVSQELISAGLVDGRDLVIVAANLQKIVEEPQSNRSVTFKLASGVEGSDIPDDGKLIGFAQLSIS
notes: glycine of the TEV site (ENLYFQ/G) left after cleavage; OSR1, human, CCT domain, residues 423-527; also called cleaved hOSR1-CCT; hOSR1-CCT; source: E. coli BL21-CodonPlus (DE3)-RIL, purified (HisTrap, SEC, TEV cleavage, SEC in HBS EP); not shown: His6, N-terminal, cleaved; AviTag, N-terminal, cleaved
B1: the Kd in test [1] came out at 6.6 µM; in test [2], 2100 nM.

B2: 18-mer RFQV peptide derived from WNK4 (SEEGKPQLVGRFQVTSSK), unbiotinylated (peptide)
peptide: SEEGKPQLVGRFQVTSSK
notes: With No Lysine kinase 4 (WNK4), 18-mer with the RFQV motif; also called 18-mer peptide; RFQV 18-mer peptide; source: synthetic peptide, bought: GL Biochem, Shanghai Ltd
As to B2, the values for the Kd in test [3], in test [4] and in test [5] were 1160 nM, 1100 nM and 2500 nM, respectively.
